Source: patent US6835806B2, “Cell growth regulation system” (Phoenix Pharmaceuticals, Inc., priority 2000, dated 2004)

System: Human umbilical vein endothelial cells (HUVEC)
Test: [3H]thymidine incorporation, HUVEC growth in vitro
Type: cell-based
Conditions: increasing concentrations, FIG. 6C
Method: To determine if the '362 peptide or the '367 peptide affects the in-vitro growth of cells, the '362 peptide was tested in culture dishes for the ability to inhibit the growth of prostrate tumor cells or of lung tumor cells. Radioactive hydrogen (^3 H) was attached to thymidine([^3H]hymidine), which is one of the components of DNA. Cells that grow in the presence of [^3H]thymidine incorporate the radioactive thymidine into their DNA.
Human umbilical vein endothelial cells (HUVEC) were also grown in increasing concentrations of the '362 peptide or '367 peptide in the presence of radioactive thymidine. HUVEC cells are commonly used to test for angiogenic regulation because these cells respond to angiogenic inhibitors in a fashion similar to the cells in the human body that form new blood vessels. […] Research protocols designed to elucidate the reasons for this unexpected difference in response of HUVEC to endostatin protein and to '362 peptide are set out in the Research Plan, Phoenix Pharmaceuticals, Inc., 2438 Wyandotte Street, Mountain View, Calif. 94043, (1999) which is hereby incorporated by reference.

B1: endostatin protein: protein of about 20 kDa with a zinc-binding domain, inhibitor of endothelial cell growth (FIG. 5) (protein, UniProt P39060 1572-1754, looked up)
Endostatin: HSHRDFQPVLHLVALNSPLSGGMRGIRGADFQCFQQARAVGLAGTFRAFLSSRLQDLYSIVRRADRAAVPIVNLKDELLFPSWEALFSGSEGPLKPGARIFSFDGKDVLRHPTWPQKSVWHGSDPNGRRLTESYCETWRTEAPSATGQASSLLGGRLLGQSAASCHHAYIVLCIENSFMTASK
modifications: Endostatin
HUVEC growth rate (radioactive thymidine): dramatic reduction in HUVEC growth
